These results are taken from PMC10618235.

Read-outs that look alike come from different tables or passages of the source.

For data set [1], the target named is FBXL6 (F-Box and Leucine Rich Repeat Protein 6) (UniProt Q8N531). The experiment in a line: co-IP with anti-Flag IgG, blot. The note with it: reference: wild-type TKT; sites T287.

On to “TKT (transketolase) (from UniProt P29401) TKT T287A”, for which the “binding against the reference” value in data set [1] was “lost”.

Consider TKT (transketolase): K16A, for which, under “ubiquitination at K16”, the enzymatic_activity entry is “abolishes”, the localisation_or_trafficking result is recorded as “changes” and the other entry is recorded as “decreases”.

Regarding TKT (transketolase): K319A, where the note is “ubiquitination at K319”, the enzymatic_activity result was “abolishes”, the localisation_or_trafficking entry is reported as “changes” and the other entry is on record as “decreases”.

As for TKT (transketolase): T287A, where the note is “phosphorylation at T287”, the enzymatic_activity result is “decreases”, the localisation_or_trafficking result was “changes” and the other entry is on record as “decreases”.

For “TKT (transketolase): VRK2 inhibition (IC261, 5 μM) or siVRK2”, the other result (phosphorylation at T287) is “decreases”.
